Laboratory results as given in article PMC5790771, “Reconstitution of Pure Chaperonin Hetero-Oligomer Preparations in Vitro by Temperature Modulation” (Frontiers in Molecular Biosciences, 2018).

B2: Cpn60β2 (At3g13470) (natural protein, A. thaliana, UniProt Q9LJE4 51-596, looked up)
chain: AAKELHFNKDGTTIRKLQTGVNKLADLVGVTLGPKGRNVVLESKYGSPRIVNDGVTVAREVELEDPVENIGAKLVRQAAAKTNDLAGDGTTTSVVLAQGFIAEGVKVVAAGANPVLITRGIEKTAKALVNELKLMSKEVEDSELADVAAVSAGNNHEVGSMIAEAMSKVGRKGVVTLEEGKSAENNLYVVEGMQFDRGYISPYFVTDSEKMSVEYDNCKLLLVDKKVTNARDLVGVLEDAIRGGYPILIIAEDIEQEALATLVVNKLRGTLKIAALKAPGFGERKSQYLDDIAILTGATVIREEVGLSLDKAGKEVLGNASKVVLTKEMTTIVGDGTTQEAVNKRVVQIRNLIEQAEQDYEKEKLNERIAKLSGGVAVIQVGAQTETELKEKKLRVEDALNATKAAVEEGIVVGGGCTLLRLASKVDAIKDTLENDEEKVGAEIVKRALSYPLKLIAKNAGVNGSVVSEKVLANDNVKFGYNAATGKYEDLMAAGIIDPTKVVRCCLEHAASVAKTFLMSDCVVVEIPEPEPVPAGNPMDNSGYGY
notes: Cpn60β2, chloroplast chaperonin 60 beta subunit of A. thaliana, At3g13470; also called β2 Cpn60; source: purified by a previously published protocol (Vitlin et al., 2011)

Experiments:
[1] = biological target: the molecule itself; assay: cross-linking; 20 μM purified protein, 0.1% glutaraldehyde, room temperature, 50 mM Na-HEPES (pH 8 in the legend, 7.5 in the methods), 10 mM MgCl2, 100 mM KCl; SDS-PAGE on a 2.4-12% gradient gel, Coomassie
[2] = biological target: the molecule itself; assay: SEC; 300 μM β2 and 150 μM mt-cpn10 reconstituted with Mg-ATP (600 μl), Superdex 200 run at room temperature; fractions on SDS-PAGE
Cpn60β3 (At1g55490) = biological target: T1, Cpn60β3 (At1g55490) (A. thaliana, UniProt P21240 55-600); assay: native gel or EMSA; reconstitution: 150 μM Cpn60α2 with 100 μM Cpn60β and 50 μM Cpn10 (GroES, mt-cpn10, Cpn20 or Cpn10(2)); 50 mM Tris-HCl pH 8, 0.3 M NaCl, 10 mM MgCl2, 16 mM KCl, 2 mM DTT, 5 mM ATP; 5 min at room temperature, 1 h at 30°C; 6% native polyacrylamide gel; conditions: both partners purified
T1 construct: Cpn60β3, chloroplast chaperonin 60 beta subunit of A. thaliana, At1g55490; also called β3 Cpn60; source: purified by a previously published protocol (Vitlin et al., 2011)

Cpn60β2 (At3g13470) = biological target: B2; assay: SEC; 150 μM α2, 100 μM β2 and 50 μM mt-cpn10 reconstituted with Mg-ATP (2 ml), Superdex 200 run at 4°C in 50 mM Tris-HCl pH 8, 300 mM NaCl, 5% glycerol; fractions on SDS-PAGE; conditions: both partners purified

T1 sequence (P21240 55-600): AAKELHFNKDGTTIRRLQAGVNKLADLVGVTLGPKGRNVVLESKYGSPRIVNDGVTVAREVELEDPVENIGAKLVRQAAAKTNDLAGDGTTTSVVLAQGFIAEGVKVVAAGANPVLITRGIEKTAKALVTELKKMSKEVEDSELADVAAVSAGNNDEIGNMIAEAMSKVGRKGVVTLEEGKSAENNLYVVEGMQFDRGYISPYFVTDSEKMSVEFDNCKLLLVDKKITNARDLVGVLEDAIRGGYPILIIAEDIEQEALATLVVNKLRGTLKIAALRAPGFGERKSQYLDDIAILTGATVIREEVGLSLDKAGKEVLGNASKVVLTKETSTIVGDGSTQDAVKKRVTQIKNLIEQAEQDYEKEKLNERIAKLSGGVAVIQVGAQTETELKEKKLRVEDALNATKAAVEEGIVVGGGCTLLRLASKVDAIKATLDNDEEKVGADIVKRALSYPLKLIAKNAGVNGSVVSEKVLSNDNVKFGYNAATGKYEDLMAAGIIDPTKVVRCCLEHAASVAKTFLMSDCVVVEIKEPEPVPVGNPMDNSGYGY

B1: Cpn60α1 (At5g18820) (natural protein)
chain: not shown
notes: additional glycine-serine at the N-terminus, left by the cloning (printed in words); Cpn60α1, chloroplast chaperonin 60 alpha subunit of A. thaliana, At5g18820; 543 residues without the putative transit peptide; The vector codes for an octa-histidine tag followed by a TEV site at the amino terminus; also called α1 Cpn60; Cpn60α1 subunit; source: E. coli Rosetta (Novagen), purified based on the …
For B1, the “stoichiometry N” value [1] was 2.

B2: binds [2].

B3: Cpn60α2 (At2g28000) (natural protein)
chain: not shown
notes: additional glycine-serine at the N-terminus, left by the cloning (printed in words); Cpn60α2, chloroplast chaperonin 60 alpha subunit of A. thaliana, At2g28000; 541 residues without the putative transit peptide; The vector codes for an octa-histidine tag followed by a TEV site at the amino terminus; also called α2 Cpn60; Cpn60α2 subunit; source: E. coli Rosetta (Novagen), purified based on the …
B3: binds (Cpn60β3 (At1g55490)); binds (Cpn60β2 (At3g13470)).
